The text below walks through data of patent publication US7722863B2, “Use of granzyme b as an hsp70/hsp70 peptide dependent inducer of apoptosis in tumor cells” (Multimmune GmbH, priority 2002, dated 2010).

For one assay, the target named is T1, Hsp70-peptide TKD (Homo sapiens, UniProt P0DMV8).
T1 construct: Hsp70-peptide TKD (TKDNNLLGRFELSG (SEO ID NO:1), aa450-463, Bachem, Bubendorf, Switzerland); purchased Bachem
Description: Affinity chromatography of YT cell lysate, Western blot of eluates. The format is binding. Conditions: Western blot with mAb 2C5, fraction F3. As to the method: (§1) Bovine serum albumine (BSA, 1 mg/ml, Sigma-Aldrich, Steinheim, Germany), 1 mg/ml lyophylized, recombinant human Hsp70-protein (Stressgen, British Columbia, Canada) or 2 mg/mi Hsp70-peptide TKD (TKDNNLLGRFELSG (SEO ID NO:1), aa450-463, Bachem, Bubendorf, Switzerland) were incubated with equilibrated AminoLink agarose beads (Pierce, Rockford, USA) in 2 ml for 6 h, together with the reductant NaCNBH3. Binding capacity of BSA, Hsp70-protein and Hsp70-peptide TKD was greater 95%. Following removal of uncoupled material by extensive washing with Tris-buffer and quenching of non-reactive groups, cell lysates were administered to the BSA, Hsp70-protein and Hsp70-peptide TKD conjugated columns for 1 h.
(§2) After washing with 10 column volumes of 20 mM Tris buffer, bound proteins were eluted with 3 M sodium chloride in 20 mM Tris buffer, in 5 fractions. Each fraction was subjected to a 10% SDS-PAGE and blotted to PVDF membranes.
(§3) Following blocking in skim-milk (0.1%) and incubation with mAb directed against granzyme B 2C5 (IgG2a, Becton Dickinson, Heidelberg, Germany), at 4° C., for 5 h, Western blots were washed and incubated with a secondary mouse anti-IgG HRP Ab (Dianova, Hamburg, Germany), for 1 h. Proteins were detected using the ECL kit (Amersham Bioscience) for 5 sec. […]
A general note: A western blot detects proteins with antibodies after separation by electrophoresis.

Assay [1] addresses T2, recombinant human Hsp70-protein (Homo sapiens, UniProt P0DMV8).
T2 construct: purchased Stressgen
Described as above. The class given is binding. Conditions: Western blot with mAb 2C5, fraction F3. As to the method: as §1, §2, §3

T2 sequence (P0DMV8 whole entry): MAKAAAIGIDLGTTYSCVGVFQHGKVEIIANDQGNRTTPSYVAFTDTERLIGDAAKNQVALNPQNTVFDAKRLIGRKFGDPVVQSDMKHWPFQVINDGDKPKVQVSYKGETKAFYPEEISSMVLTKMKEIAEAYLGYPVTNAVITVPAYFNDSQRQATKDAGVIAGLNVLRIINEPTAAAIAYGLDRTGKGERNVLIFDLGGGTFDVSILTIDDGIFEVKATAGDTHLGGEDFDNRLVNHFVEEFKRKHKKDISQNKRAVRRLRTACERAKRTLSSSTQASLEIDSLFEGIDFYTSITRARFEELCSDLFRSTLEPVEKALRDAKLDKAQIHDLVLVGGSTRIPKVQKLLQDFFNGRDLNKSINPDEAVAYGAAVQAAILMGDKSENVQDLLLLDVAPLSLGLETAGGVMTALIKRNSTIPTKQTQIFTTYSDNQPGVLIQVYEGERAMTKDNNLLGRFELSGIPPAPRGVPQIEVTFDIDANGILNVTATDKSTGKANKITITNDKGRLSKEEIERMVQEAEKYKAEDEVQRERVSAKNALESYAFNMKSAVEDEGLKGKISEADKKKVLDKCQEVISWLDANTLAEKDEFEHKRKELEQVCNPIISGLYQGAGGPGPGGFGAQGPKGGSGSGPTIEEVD

Consider granzyme B, for which the “granzyme B in YT cell eluates from Hsp70-peptide (TKD) column” value with Hsp70-peptide TKD was “dominant 32 kDa granzyme B protein band”. The “granzyme B in YT cell eluates from Hsp70-protein column” value in assay [1] was “dominant 32 kDa granzyme B protein band”.
